Test results as given in PMC3077455 (Nature, 2011).

T1: Scm3 residues 93-169, as it stands in the single-chain molecule scSCH (yeast, UniProt Q12334 93-169)
T1 sequence: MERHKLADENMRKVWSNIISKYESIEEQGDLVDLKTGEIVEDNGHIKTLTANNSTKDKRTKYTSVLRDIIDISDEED

B1: Scm3_(83–169) (domain or fragment)
chain: IIPKLTDDEVMERHKLADENMRKVWSNIISKYESIEEQGDLVDLKTGEIVEDNGHIKTLTANNSTKDKRTKYTSVLRDIIDISDEED
B2: single chain Cse4-H4 (His6-KK-Cse4_(151–207)-LVPRGS-H4_(45–103)) (complex)
chain: not shown
B3: Histone H4 residues 42-103, as it stands in the single-chain molecule scSCH (domain or fragment)
chain: not shown

Assays:
[1] = molecular target: single chain Cse4-H4 with Cse4 Met181Ser/Met184Gly (budding yeast | , UniProt P36012;P02309, Met181Ser | Met184Gly); assay: ITC
[2] = molecular target: single chain Cse4-H4 with Cse4 Ala189Ser/Ser190Val (budding yeast | , UniProt P36012;P02309, Ala189Ser | Ser190Val); assay: ITC
Scm3_(83–169) = molecular target: B1; assay: ITC
[3] = molecular target: T1, Scm3 residues 93-169, as it stands in …; assay: NMR structure

Binder: B1
- fold reduction of the binding affinity against the wild type [1]: 5.5 fold
- fold reduction of the binding affinity against the wild type [2]: 9 fold

Binder: B2
- binding result (Scm3_(83–169)): binds

Binder: B3
- binding result [3]: binds
